The supplement of paper PMC11908140

B1: library; numbered along this chain (parent)
chain: MRKPRAAVGSGHRKQAASQEGRQKHAKNNSQAKPSACDGLARQPEEVVLQASVSSYHLFRDVAEVTAFRGSLLSWYDQEKRDLPWRRRAEDEMDLDRRAYAVWVSEVMLQQTQVATVINYYTGWMQKWPTLQDLASASLEEVNQLWAGLGYYSRGRRLQEGARKVVEELGGHMPRTAETLQQLLPGVGRYTAGAIASIAFGQATGVVDGNVARVLCRVRAIGADPSSTLVSQQLWGLAQQLVDPARPGDFNQAAMELGATVCTPQRPLCSQCPVESLCRARQRVEQEQLLASGSLSGSPDVEECAPNTGQCHLCLPPSEPWDQTLGVVNFPRKASRKPPREESSATCVLEQPGALGAQILLVQRPNSGLLAGLWEFPSVTWEPSEQLQRKALLQELQRWAGPLPATHLRHLGEVVHTFSHIKLTYQVYGLALEGQTPVTTVPPGARWLTQEEFHTAAVSTAMKKVFRVYQGQQPGTCMGSKRSQVSSPCSRKKPRMGQQVLDNFFRSHISTDAHSLNSAAQ

Variants of: B1
Assay: 8OG:A repair function score (normalized; synonymous = 0, nonsense = -1) (normalized log-likelihood score); higher = more repair activity (WT-like)
Conditions: with 8OG:A DNA repair reporter (GFP) in HEK-293 MUTYH KO cells
Procedure, shortened: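 Per-tile Rosace fitness scores were converted to a normalized repair function score anchored on synonymous and nonsense distributions. That scale puts synonymous medians at 0 and nonsense medians at -1. Variants with starting counts under 300 counts per million were discarded. Input came from sorting viable mCherry+ MUTYH knockout HEK-293 cells, carrying lentiviral MUTYH cDNA NNN codon-scan libraries in 10 pg/ml doxycycline and an 8OG:A GFP repair reporter, into GFP+ and GFP− bins at 72 h, three replicates per tile, followed by tile amplicon sequencing.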
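Further: cells sorted at 72 h after reporter transfection.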

Variant	8OG:A repair function score
R336A	-0.0267
R336L	-0.22
R336H	-0.173
R336W	-0.0779
R336Y	-0.18
R336K	-0.0529
R336C	-0.0115
R336I	-0.113
R336V	-0.148
R336N	-0.101
R336F	-0.164
R336T	-0.118
R336G	-0.112
R336E	-0.151
R336M	-0.117
R336Q	-0.218
R336P	-0.136
R336S	-0.097
R336D	-0.271
A334H	0.0495
A334V	0.00558
A334R	0.0363
A334D	-0.242
A334T	-0.0373

Variant	8OG:A repair function score
A334P	-0.147
A334N	0.0217
A334L	-0.0917
A334F	-0.0391
A334G	-0.0343
A334Q	-0.103
A334I	-0.198
A334K	0.00736
A334Y	0.0534
A334C	-0.0888
A334E	-0.0264
A334W	-0.28
A334S	0.0289
F330C	-0.248
F330D	-1.15
F330E	-0.809
F330H	-0.37
F330R	-0.958
F330M	-0.174
F330S	-0.765
F330Q	-0.638
F330V	-0.145
F330Y	-0.0696
F330N	-1.18

Variant	8OG:A repair function score
F330K	-0.928
F330G	-0.999
F330P	-1.04
F330I	-0.18
F330T	-0.478
F330W	-0.017
F330L	-0.149
F330A	-0.791
R332F	-0.0556
R332S	-0.0346
R332T	-0.246
R332W	0.0485
R332I	-0.256
R332Y	-0.166
R332M	-0.332
R332P	-0.191
R332V	-0.216
R332L	-0.109
R332K	-0.206
R332E	-0.449
R332Q	-0.0904
R332H	-0.163
R332D	-0.574
R332N	-0.315

Variant	8OG:A repair function score
R332G	-0.193
R332C	-0.154
R332A	-0.0476
V328N	-0.0823
V328F	-0.215
V328A	-0.0621
V328C	0.0567
V328T	-0.077
V328R	0.0191
V328H	-0.251
V328P	-0.507
V328W	-0.0588
V328D	-0.227
V328K	0.0221
V328Q	0.0461
V328Y	-0.134
V328I	-0.0358
V328E	-0.157
V328L	0.0391
V328S	-0.00939
V328G	-0.0273
V328M	-0.0227
V327L	-0.388
V327I	-0.257

Variant	8OG:A repair function score
V327G	-0.53
V327R	-0.583
V327K	-0.459
V327T	-0.119
V327M	-0.375
V327Y	-0.526
V327E	-0.178
V327Q	-0.4
V327F	-0.513
V327S	-0.274
V327W	-0.425
V327D	-0.777
V327H	-0.532
V327P	-0.051
V327N	-0.696
E342P	-0.298
E342H	0.0491
E342I	-0.00523
E342F	-0.0595
E342D	0.0832
E342G	-0.00875
E342Y	-0.0601
E342K	0.0199
E342A	-0.0199

Variant	8OG:A repair function score
E342L	0.0472
E342T	-0.0198
E342V	-0.0483
E342S	-0.0341
E342C	0.0508
E342N	0.0275
E342W	-0.279
E342M	0.0246
E342R	0.0113
E342Q	0.0267
K337W	-0.0779
K337L	-0.136
K337M	-0.112
K337E	-0.0878
K337C	-0.225
K337D	-0.151
K337R	0.000179
K337H	-0.0482
K337S	-0.109
K337A	-0.0726
K337F	-0.221
K337Q	-0.0917
K337V	-0.116
K337G	-0.0801

Variant	8OG:A repair function score
K337N	-0.132
K337I	-0.106
K337P	0.0544
K337T	-0.131
K337Y	-0.118
P331I	-0.596
P331A	-0.0508
P331S	-0.197
P331R	-0.474
P331H	-0.439
P331D	-0.501
P331Y	-0.276
P331V	-0.568
P331Q	-0.608
P331T	-0.351
P331C	-0.105
P331G	-0.0671
P331F	-0.357
P331L	-0.609
P331E	-0.568
P331W	-0.233
P331M	-0.254
P331N	-0.316
P331K	-0.332

Variant	8OG:A repair function score
N329E	-0.365
N329T	-0.361
N329P	-0.438
N329R	-0.0858
N329I	-0.365
N329D	-0.288
N329H	-0.276
N329S	-0.235
N329V	-0.246
N329C	-0.102
N329L	-0.301
N329Y	-0.104
N329M	-0.264
N329G	-0.365
N329F	-0.345
N329K	-0.105
N329Q	-0.0134
N329A	-0.161
N329W	-0.525
S343Y	0.129
S343W	-0.0714
S343V	0.0196
S343Q	-0.144
S343H	0.00619

Variant	8OG:A repair function score
S343A	0.0302
S343G	-0.00518
S343P	-0.144
S343D	0.0576
S343N	-0.0331
S343F	-0.0296
S343T	-0.0419
S343R	0.0819
S343M	0.0865
S343K	0.133
S343E	-0.015
S343C	0.00733
S343L	-0.124
S343I	-0.0485
P339N	-0.17
P339A	-0.12
P339R	-0.0864
P339W	-0.126
P339T	-0.0529
P339V	-0.0967
P339Q	-0.0157
P339D	-0.41
P339I	-0.0749
P339S	-0.0594

Variant	8OG:A repair function score
P339Y	-0.144
P339E	-0.374
P339M	-0.0671
P339F	-0.187
P339C	-0.157
P339H	0.0544
P339G	-0.00599
P339L	-0.113
P339K	-0.0247
R340Y	-0.205
R340V	-0.304
R340K	-0.0186
R340H	-0.253
R340P	-0.328
R340Q	-0.171
R340M	-0.107
R340N	-0.24
R340W	-0.144
R340E	-0.133
R340A	-0.0533
R340C	-0.18
R340S	-0.153
R340F	-0.491
R340L	-0.211

Variant	8OG:A repair function score
R340G	-0.129
R340D	-0.385
R340I	-0.119
R340T	-0.0938
K333W	-0.0431
K333A	0.0254
K333T	-0.137
K333E	-1.01
K333D	-0.903
K333H	-0.0128
K333G	-0.131
K333N	-0.205
K333C	0.053
K333F	-0.221
K333R	0.0284
K333S	-0.141
K333V	-0.0946
K333Q	-0.166
K333P	0.038
K333L	-0.227
K333Y	-0.0195
K333I	-0.0317
K333M	-0.0664
S344P	-0.301

Variant	8OG:A repair function score
S344F	-0.0252
S344H	0.0531
S344N	0.0332
S344L	0.00107
S344R	-0.0609
S344I	-0.0592
S344E	-0.0813
S344C	0.0475
S344T	0.00415
S344M	0.0335
S344Q	0.019
S344K	0.0408
S344D	-0.196
S344A	0.0466
S335W	-0.0943
S335E	-0.0481
S335G	-0.02
S335N	0.0783
S335T	0.005
S335V	-0.0166
S335C	-0.0251
S335F	-0.0626
S335L	-0.0705
S335I	-0.000462

Variant	8OG:A repair function score
S335R	-0.0718
S335H	0.0625
S335K	0.029
S335Q	-0.044
S335P	-0.028
S335Y	-0.0347
S335M	-0.0531
S335A	0.0331
S335D	-0.0695
P338L	-0.061
P338N	-0.066
P338D	-0.0378
P338R	0.00053
P338I	-0.0572
P338K	0.0337
P338W	0.053
P338T	-0.0578
P338Y	-0.0269
P338V	-0.0391
P338H	-0.0311
P338C	-0.0613
P338M	0.0756
P338G	-0.0299
P338E	-0.133

Variant	8OG:A repair function score
P338S	-0.0346
P338F	-0.101
P338Q	-0.00645
P338A	-0.066
E341D	-0.0128
E341V	-0.0649
E341S	-0.0269
E341K	-0.0881
E341P	-0.0298
E341G	-0.208
E341R	0.0117
E341A	0.0808
E341W	0.0472
E341N	-0.0613
E341F	-0.0534
E341C	-0.0275
E341H	0.0806
E341T	0.0246
E341I	-0.0537
E341Y	-0.00525
E341L	-0.00796
E341Q	-0.0264
